The results in this text go back to the supplement of paper PMC11908140.

The chains are these.
B1: library; numbered along this chain (parent)
chain: MRKPRAAVGSGHRKQAASQEGRQKHAKNNSQAKPSACDGLARQPEEVVLQASVSSYHLFRDVAEVTAFRGSLLSWYDQEKRDLPWRRRAEDEMDLDRRAYAVWVSEVMLQQTQVATVINYYTGWMQKWPTLQDLASASLEEVNQLWAGLGYYSRGRRLQEGARKVVEELGGHMPRTAETLQQLLPGVGRYTAGAIASIAFGQATGVVDGNVARVLCRVRAIGADPSSTLVSQQLWGLAQQLVDPARPGDFNQAAMELGATVCTPQRPLCSQCPVESLCRARQRVEQEQLLASGSLSGSPDVEECAPNTGQCHLCLPPSEPWDQTLGVVNFPRKASRKPPREESSATCVLEQPGALGAQILLVQRPNSGLLAGLWEFPSVTWEPSEQLQRKALLQELQRWAGPLPATHLRHLGEVVHTFSHIKLTYQVYGLALEGQTPVTTVPPGARWLTQEEFHTAAVSTAMKKVFRVYQGQQPGTCMGSKRSQVSSPCSRKKPRMGQQVLDNFFRSHISTDAHSLNSAAQ

The variants in the data set derive from B1. Description: 8OG:A repair function score (normalized; synonymous = 0, nonsense = -1) (normalized log-likelihood score); higher = more repair activity (WT-like). Particulars: with 8OG:A DNA repair reporter (GFP) in HEK-293 MUTYH KO cells. As to the method:
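Saturation mutagenesis (NNN codon scan) of the MUTYH cDNA (521-aa nuclear isoform NM_001048174.1 / NP_001041639), stably expressed under doxycycline induction in HEK-293 MUTYH knockout cells. Cells were co-transfected with an 8OG:A-bearing GFP repair reporter plus mCherry and sorted 72 h later into GFP+ and GFP− bins, three replicates per tile. The Rosace log2 enrichment (GFP+ vs GFP−) was converted per tile to a normalized function score with synonymous variants centered at 0 and nonsense variants (codons 1-471) at -1; low-abundance variants were removed.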
Consider MRKPRAAVGSGHRKQAASQEGRQKHAKNNSQAKPSACDGLARQPEEVVLQASVSSYHLFRDVAEVTAFRGSLLSWYDQEKRDLPWRRRAEDEMDLDRRAYAVWVSEVMLQQTQVATAINYYTGWMQKWPTLQDLASASLEEVNQLWAGLGYYSRGRRLQEGARKVVEELGGHMPRTAETLQQLLPGVGRYTAGAIASIAFGQATGVVDGNVARVLCRVRAIGADPSSTLVSQQLWGLAQQLVDPARPGDFNQAAMELGATVCTPQRPLCSQCPVESLCRARQRVEQEQLLASGSLSGSPDVEECAPNTGQCHLCLPPSEPWDQTLGVVNFPRKASRKPPREESSATCVLEQPGALGAQILLVQRPNSGLLAGLWEFPSVTWEPSEQLQRKALLQELQRWAGPLPATHLRHLGEVVHTFSHIKLTYQVYGLALEGQTPVTTVPPGARWLTQEEFHTAAVSTAMKKVFRVYQGQQPGTCMGSKRSQVSSPCSRKKPRMGQQVLDNFFRSHISTDAHSLNSAAQ [V117A], for which the “8OG:A repair function score” value was 0.0474.
Turning to MRKPRAAVGSGHRKQAASQEGRQKHAKNNSQAKPSACDGLARQPEEVVLQASVSSYHLFRDVAEVTAFRGSLLSWYDQEKRDLPWRRRAEDEMDLDRRAYAVWVSEVMLQQTQVASVINYYTGWMQKWPTLQDLASASLEEVNQLWAGLGYYSRGRRLQEGARKVVEELGGHMPRTAETLQQLLPGVGRYTAGAIASIAFGQATGVVDGNVARVLCRVRAIGADPSSTLVSQQLWGLAQQLVDPARPGDFNQAAMELGATVCTPQRPLCSQCPVESLCRARQRVEQEQLLASGSLSGSPDVEECAPNTGQCHLCLPPSEPWDQTLGVVNFPRKASRKPPREESSATCVLEQPGALGAQILLVQRPNSGLLAGLWEFPSVTWEPSEQLQRKALLQELQRWAGPLPATHLRHLGEVVHTFSHIKLTYQVYGLALEGQTPVTTVPPGARWLTQEEFHTAAVSTAMKKVFRVYQGQQPGTCMGSKRSQVSSPCSRKKPRMGQQVLDNFFRSHISTDAHSLNSAAQ [T116S], the “8OG:A repair function score” value was -0.0572.
In the case of MRKPRAAVGSGHRKQAASQEGRQKHAKNNSQAKPSACDGLARQPEEVVLQASVSSYHLFRDVAEVTAFRGSLLSWYDQEKRDLPWRRRAEDEMDLDRRAYAVWVSEVMLQQTQVAQVINYYTGWMQKWPTLQDLASASLEEVNQLWAGLGYYSRGRRLQEGARKVVEELGGHMPRTAETLQQLLPGVGRYTAGAIASIAFGQATGVVDGNVARVLCRVRAIGADPSSTLVSQQLWGLAQQLVDPARPGDFNQAAMELGATVCTPQRPLCSQCPVESLCRARQRVEQEQLLASGSLSGSPDVEECAPNTGQCHLCLPPSEPWDQTLGVVNFPRKASRKPPREESSATCVLEQPGALGAQILLVQRPNSGLLAGLWEFPSVTWEPSEQLQRKALLQELQRWAGPLPATHLRHLGEVVHTFSHIKLTYQVYGLALEGQTPVTTVPPGARWLTQEEFHTAAVSTAMKKVFRVYQGQQPGTCMGSKRSQVSSPCSRKKPRMGQQVLDNFFRSHISTDAHSLNSAAQ [T116Q], the “8OG:A repair function score” value is -0.21.
As for MRKPRAAVGSGHRKQAASQEGRQKHAKNNSQAKPSACDGLARQPEEVVLQASVSSYHLFRDVAEVTAFRGSLLSWYDQEKRDLPWRRRAEDEMDLDRRAYAVWVSEVMLQQTQVAKVINYYTGWMQKWPTLQDLASASLEEVNQLWAGLGYYSRGRRLQEGARKVVEELGGHMPRTAETLQQLLPGVGRYTAGAIASIAFGQATGVVDGNVARVLCRVRAIGADPSSTLVSQQLWGLAQQLVDPARPGDFNQAAMELGATVCTPQRPLCSQCPVESLCRARQRVEQEQLLASGSLSGSPDVEECAPNTGQCHLCLPPSEPWDQTLGVVNFPRKASRKPPREESSATCVLEQPGALGAQILLVQRPNSGLLAGLWEFPSVTWEPSEQLQRKALLQELQRWAGPLPATHLRHLGEVVHTFSHIKLTYQVYGLALEGQTPVTTVPPGARWLTQEEFHTAAVSTAMKKVFRVYQGQQPGTCMGSKRSQVSSPCSRKKPRMGQQVLDNFFRSHISTDAHSLNSAAQ [T116K], the figure is 0.113; as for MRKPRAAVGSGHRKQAASQEGRQKHAKNNSQAKPSACDGLARQPEEVVLQASVSSYHLFRDVAEVTAFRGSLLSWYDQEKRDLPWRRRAEDEMDLDRRAYAVWVSEVMLQQTQVAMVINYYTGWMQKWPTLQDLASASLEEVNQLWAGLGYYSRGRRLQEGARKVVEELGGHMPRTAETLQQLLPGVGRYTAGAIASIAFGQATGVVDGNVARVLCRVRAIGADPSSTLVSQQLWGLAQQLVDPARPGDFNQAAMELGATVCTPQRPLCSQCPVESLCRARQRVEQEQLLASGSLSGSPDVEECAPNTGQCHLCLPPSEPWDQTLGVVNFPRKASRKPPREESSATCVLEQPGALGAQILLVQRPNSGLLAGLWEFPSVTWEPSEQLQRKALLQELQRWAGPLPATHLRHLGEVVHTFSHIKLTYQVYGLALEGQTPVTTVPPGARWLTQEEFHTAAVSTAMKKVFRVYQGQQPGTCMGSKRSQVSSPCSRKKPRMGQQVLDNFFRSHISTDAHSLNSAAQ [T116M], -0.441; as for MRKPRAAVGSGHRKQAASQEGRQKHAKNNSQAKPSACDGLARQPEEVVLQASVSSYHLFRDVAEVTAFRGSLLSWYDQEKRDLPWRRRAEDEMDLDRRAYAVWVSEVMLQQTQVARVINYYTGWMQKWPTLQDLASASLEEVNQLWAGLGYYSRGRRLQEGARKVVEELGGHMPRTAETLQQLLPGVGRYTAGAIASIAFGQATGVVDGNVARVLCRVRAIGADPSSTLVSQQLWGLAQQLVDPARPGDFNQAAMELGATVCTPQRPLCSQCPVESLCRARQRVEQEQLLASGSLSGSPDVEECAPNTGQCHLCLPPSEPWDQTLGVVNFPRKASRKPPREESSATCVLEQPGALGAQILLVQRPNSGLLAGLWEFPSVTWEPSEQLQRKALLQELQRWAGPLPATHLRHLGEVVHTFSHIKLTYQVYGLALEGQTPVTTVPPGARWLTQEEFHTAAVSTAMKKVFRVYQGQQPGTCMGSKRSQVSSPCSRKKPRMGQQVLDNFFRSHISTDAHSLNSAAQ [T116R], 0.0298.
As for MRKPRAAVGSGHRKQAASQEGRQKHAKNNSQAKPSACDGLARQPEEVVLQASVSSYHLFRDVAEVTAFRGSLLSWYDQEKRDLPWRRRAEDEMDLDRRAYAVWVSEVMLQQTQVAVVINYYTGWMQKWPTLQDLASASLEEVNQLWAGLGYYSRGRRLQEGARKVVEELGGHMPRTAETLQQLLPGVGRYTAGAIASIAFGQATGVVDGNVARVLCRVRAIGADPSSTLVSQQLWGLAQQLVDPARPGDFNQAAMELGATVCTPQRPLCSQCPVESLCRARQRVEQEQLLASGSLSGSPDVEECAPNTGQCHLCLPPSEPWDQTLGVVNFPRKASRKPPREESSATCVLEQPGALGAQILLVQRPNSGLLAGLWEFPSVTWEPSEQLQRKALLQELQRWAGPLPATHLRHLGEVVHTFSHIKLTYQVYGLALEGQTPVTTVPPGARWLTQEEFHTAAVSTAMKKVFRVYQGQQPGTCMGSKRSQVSSPCSRKKPRMGQQVLDNFFRSHISTDAHSLNSAAQ [T116V], the figure is -0.0225; as for MRKPRAAVGSGHRKQAASQEGRQKHAKNNSQAKPSACDGLARQPEEVVLQASVSSYHLFRDVAEVTAFRGSLLSWYDQEKRDLPWRRRAEDEMDLDRRAYAVWVSEVMLQQTQVALVINYYTGWMQKWPTLQDLASASLEEVNQLWAGLGYYSRGRRLQEGARKVVEELGGHMPRTAETLQQLLPGVGRYTAGAIASIAFGQATGVVDGNVARVLCRVRAIGADPSSTLVSQQLWGLAQQLVDPARPGDFNQAAMELGATVCTPQRPLCSQCPVESLCRARQRVEQEQLLASGSLSGSPDVEECAPNTGQCHLCLPPSEPWDQTLGVVNFPRKASRKPPREESSATCVLEQPGALGAQILLVQRPNSGLLAGLWEFPSVTWEPSEQLQRKALLQELQRWAGPLPATHLRHLGEVVHTFSHIKLTYQVYGLALEGQTPVTTVPPGARWLTQEEFHTAAVSTAMKKVFRVYQGQQPGTCMGSKRSQVSSPCSRKKPRMGQQVLDNFFRSHISTDAHSLNSAAQ [T116L], 0.023; as for MRKPRAAVGSGHRKQAASQEGRQKHAKNNSQAKPSACDGLARQPEEVVLQASVSSYHLFRDVAEVTAFRGSLLSWYDQEKRDLPWRRRAEDEMDLDRRAYAVWVSEVMLQQTQVANVINYYTGWMQKWPTLQDLASASLEEVNQLWAGLGYYSRGRRLQEGARKVVEELGGHMPRTAETLQQLLPGVGRYTAGAIASIAFGQATGVVDGNVARVLCRVRAIGADPSSTLVSQQLWGLAQQLVDPARPGDFNQAAMELGATVCTPQRPLCSQCPVESLCRARQRVEQEQLLASGSLSGSPDVEECAPNTGQCHLCLPPSEPWDQTLGVVNFPRKASRKPPREESSATCVLEQPGALGAQILLVQRPNSGLLAGLWEFPSVTWEPSEQLQRKALLQELQRWAGPLPATHLRHLGEVVHTFSHIKLTYQVYGLALEGQTPVTTVPPGARWLTQEEFHTAAVSTAMKKVFRVYQGQQPGTCMGSKRSQVSSPCSRKKPRMGQQVLDNFFRSHISTDAHSLNSAAQ [T116N], -0.15.
As for MRKPRAAVGSGHRKQAASQEGRQKHAKNNSQAKPSACDGLARQPEEVVLQASVSSYHLFRDVAEVTAFRGSLLSWYDQEKRDLPWRRRAEDEMDLDRRAYAVWVSEVMLQQTQVAPVINYYTGWMQKWPTLQDLASASLEEVNQLWAGLGYYSRGRRLQEGARKVVEELGGHMPRTAETLQQLLPGVGRYTAGAIASIAFGQATGVVDGNVARVLCRVRAIGADPSSTLVSQQLWGLAQQLVDPARPGDFNQAAMELGATVCTPQRPLCSQCPVESLCRARQRVEQEQLLASGSLSGSPDVEECAPNTGQCHLCLPPSEPWDQTLGVVNFPRKASRKPPREESSATCVLEQPGALGAQILLVQRPNSGLLAGLWEFPSVTWEPSEQLQRKALLQELQRWAGPLPATHLRHLGEVVHTFSHIKLTYQVYGLALEGQTPVTTVPPGARWLTQEEFHTAAVSTAMKKVFRVYQGQQPGTCMGSKRSQVSSPCSRKKPRMGQQVLDNFFRSHISTDAHSLNSAAQ [T116P], the “8OG:A repair function score” value is -0.326.
The value for MRKPRAAVGSGHRKQAASQEGRQKHAKNNSQAKPSACDGLARQPEEVVLQASVSSYHLFRDVAEVTAFRGSLLSWYDQEKRDLPWRRRAEDEMDLDRRAYAVWVSEVMLQQTQVAYVINYYTGWMQKWPTLQDLASASLEEVNQLWAGLGYYSRGRRLQEGARKVVEELGGHMPRTAETLQQLLPGVGRYTAGAIASIAFGQATGVVDGNVARVLCRVRAIGADPSSTLVSQQLWGLAQQLVDPARPGDFNQAAMELGATVCTPQRPLCSQCPVESLCRARQRVEQEQLLASGSLSGSPDVEECAPNTGQCHLCLPPSEPWDQTLGVVNFPRKASRKPPREESSATCVLEQPGALGAQILLVQRPNSGLLAGLWEFPSVTWEPSEQLQRKALLQELQRWAGPLPATHLRHLGEVVHTFSHIKLTYQVYGLALEGQTPVTTVPPGARWLTQEEFHTAAVSTAMKKVFRVYQGQQPGTCMGSKRSQVSSPCSRKKPRMGQQVLDNFFRSHISTDAHSLNSAAQ [T116Y] was -0.0318.
For the variant MRKPRAAVGSGHRKQAASQEGRQKHAKNNSQAKPSACDGLARQPEEVVLQASVSSYHLFRDVAEVTAFRGSLLSWYDQEKRDLPWRRRAEDEMDLDRRAYAVWVSEVMLQQTQVAWVINYYTGWMQKWPTLQDLASASLEEVNQLWAGLGYYSRGRRLQEGARKVVEELGGHMPRTAETLQQLLPGVGRYTAGAIASIAFGQATGVVDGNVARVLCRVRAIGADPSSTLVSQQLWGLAQQLVDPARPGDFNQAAMELGATVCTPQRPLCSQCPVESLCRARQRVEQEQLLASGSLSGSPDVEECAPNTGQCHLCLPPSEPWDQTLGVVNFPRKASRKPPREESSATCVLEQPGALGAQILLVQRPNSGLLAGLWEFPSVTWEPSEQLQRKALLQELQRWAGPLPATHLRHLGEVVHTFSHIKLTYQVYGLALEGQTPVTTVPPGARWLTQEEFHTAAVSTAMKKVFRVYQGQQPGTCMGSKRSQVSSPCSRKKPRMGQQVLDNFFRSHISTDAHSLNSAAQ [T116W], the “8OG:A repair function score” value is -0.0903.
